Data reported in patent publication US20240190903, “COMPOUNDS FOR PROGRAMMABLE PROTEIN DEGRADATION AND METHODS OF USE FOR THE TREATMENT OF DISEASE” (Mayo Foundation for Medical Education and Research, published 2024).

Target: p53 WT (UniProt P04637 P04637:1-393)
Assay: EMSA; GST-p53 purified from bacteria
Settings: tags: GST; chain copies: 4; label: biotin
Protocol: For supershift assay, anti-p53 antibodies were added into the cell nuclear extract mixed with the biotin-labeled probes and the mixture were incubated with for 1 hour at room temperature before loading into 6% of non-denatured polyacrylamide gel.

p53 WT, sequence (P04637 whole entry, one chain of several): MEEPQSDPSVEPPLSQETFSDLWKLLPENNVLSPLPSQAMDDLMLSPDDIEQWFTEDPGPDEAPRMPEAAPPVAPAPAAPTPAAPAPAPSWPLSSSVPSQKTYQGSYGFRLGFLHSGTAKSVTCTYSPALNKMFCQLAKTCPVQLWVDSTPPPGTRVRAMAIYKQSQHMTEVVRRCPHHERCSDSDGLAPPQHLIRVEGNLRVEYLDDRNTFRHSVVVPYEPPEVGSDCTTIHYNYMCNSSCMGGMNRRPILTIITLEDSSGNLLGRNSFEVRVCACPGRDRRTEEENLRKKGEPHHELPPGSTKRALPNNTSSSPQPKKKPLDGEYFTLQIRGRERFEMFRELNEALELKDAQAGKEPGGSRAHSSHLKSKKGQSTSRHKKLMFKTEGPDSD

B1: CTNNB1 probe 1 (MP53BS) (dsDNA)
DNA 1: GCCCCCTCGCGCCCCGCCCCTTGTC
DNA 2: GACAAGGGGCGGGGCGCGAGGGGGC
binding result: no binding
